Tested on: MS2 coat protein
Test: apparent KD of MS2 coat protein; designed switch direction (-1 OFF switch, 1 ON switch): 1; higher = weaker reporter binding
In short: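 The buffer was Tris-HCl pH 7.5 with KCl, MgCl2, BSA, DTT, tRNA and Tween-20. In it, SNAP-549-labelled MS2 coat protein was titrated in doubling steps from 0.7 or 1.5 nM to 3 µM over chip-bound RNA switches transcribed by stalled E. coli RNA polymerase on Illumina chips. Apparent KD is the per-design median over clusters of curve fits to normalised fluorescence.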

[1] = input ligand: microRNA oligo, concentration not stated
[2] = Eterna round: R95, input ligand: FMN 200 uM
[3] = Eterna round: R95, input ligand: microRNA oligo, concentration not stated
[4] = Eterna round: R95, input ligand: none

Sequence	apparent KD of MS2 coat protein (input ligand: FMN 200 uM) [nM]	apparent KD of MS2 coat protein [1] [nM]	apparent KD of MS2 coat protein (input ligand: none) [nM]	apparent KD of MS2 coat protein [2] [nM]	apparent KD of MS2 coat protein [3] [nM]	apparent KD of MS2 coat protein [4] [nM]
GUUACAUGAGGAUCACCCAUGUAUGUGUGGGAGUAAGUGUCUUAGGAUAUCUAUCAAUUAAUUUAAGAGAAGGAAGAUUGUUGU [JMF's solution 89] (Eterna round: R96, puzzle: Same State NG 3)	116	94	110	–	–	–
GAGUGGUGGAAAGGAUAUGCAUUGUUAUUCACUGUAGAAGGUUCUAACAUGAGGAUCACCCAUGUAGGACUAUUCCUGUGUUUU [Parity 59 - Jieux - Same State NG 1] (Eterna round: R96, puzzle: Same State NG 1)	–	10.2	–	–	–	–
GGUCCAGCCUGAGCUGGACGAAAGUAUGUACAUGAGGAUCACCCAUGUCAUGUAUAAGUUUUUUGUUUGUCUUGAAA [Sensorship 2 - Jieux - Sensor for hsa-mir-208a] (puzzle: Sensor for hsa-mir-208a)	–	–	–	22.4	11.2	22.7
AGAAGACAUGAGGAUCACCCAUGUACCUCAUAAGGAGAGAGCGAGGAUAUGUAGAGAGAGAGGGAACAGAAGGUGUGAGAGGAA [Default title] (Eterna round: R96, puzzle: Same State NG 3)	218	99.4	161	–	–	–
CUGUCUACAGGUGUCUUUGCUCGUUUUAUACAUGAGGAUCACCCAUGUUGUAGCCCGGUGCUUGCGCUGGGCUGGUU [JL ViennaUCT Tearor mod 9] (puzzle: Sensor for hsa-mir-208a)	–	–	–	66	15.6	72.7
AAAAAACAUGAGGAUCACCCAUGUCGAAAGACAUGAGGAUAUGUGUGGAAACCAUACUAUACAGAAGGCAUAAAAA [SS1 - 1009] (Eterna round: R96, puzzle: Same State 1)	60.6	137	96.8	–	–	–
CUGUAUCACGGAGGAUAUGGGCUGAGACCAGGGCAACCCUGGUCAACAUGAGGAUCACCCAUGUCCCAGAAGGCCGCGAUGCUA [Geisorqu] (Eterna round: R96, puzzle: Same State NG 2)	23.8	82.9	137	–	–	–
AUGAAGAAUUAAGGAUAUUGAUUACAUAUGUUUAACAUGAGGAUCACCCAUGUGGGUUGCGGUAUCGAGAAGGUAAAAUAAAAG [Mat - same State NG 2 - JL mod - D89] (Eterna round: R96, puzzle: Same State NG 2)	252	193	213	–	–	–
UUGAAGAAUUAAGGAUAUCGAGUCAAGAUGUUAAACAUGAGGAUCACCCAUGUGGGUUGCGGUAUCGAGAAGGUAAAUUACAAG [JL SSNG2 1.41] (Eterna round: R96, puzzle: Same State NG 2)	34.8	26.9	34.9	–	–	–
AGCUUUUAAUUAGGAUAUGGUCACAUGAGGAUCACCCAUGUAACGAUGAUAUAAUGUGGUCAAGACUAGAAGGGAUUGCUAACA [SameState NG2 #68] (Eterna round: R96, puzzle: Same State NG 2)	589	357	355	–	–	–
UUCCCAGCGGGAGGAUAUGGUGCCUUGUUGGUGCUAGAAGGUCCAACAUGAGGAUCACCCAUGUGGGAGUGGUCGAGAGACCUC [SS NG10LRO10] (Eterna round: R96, puzzle: Same State NG 1)	307	238	427	–	–	–

Source: the supplement of paper PMC9170038
